According to patent US10766952B2, “Methods for reducing migraine frequency in a subject in need thereof” (Beth Israel Deaconess Medical Center, Inc., priority 2017, dated 2020):
Ends that are not written are not given here.

Assays:
[1] = target: T1, binding of G1 Fab to human α-CGRP on the chip (Homo sapiens); test: Epitope mapping of antibody G1 by peptide competition using Biacore; conditions: 10 μM peptide in 50 nM G1 Fab; FIG. 6
T1 construct: made in house; host or cells: E. coli (Fab); chip peptide purchased
T1 sequence (P01859 with tags, fused parts or gaps, other chains not shown): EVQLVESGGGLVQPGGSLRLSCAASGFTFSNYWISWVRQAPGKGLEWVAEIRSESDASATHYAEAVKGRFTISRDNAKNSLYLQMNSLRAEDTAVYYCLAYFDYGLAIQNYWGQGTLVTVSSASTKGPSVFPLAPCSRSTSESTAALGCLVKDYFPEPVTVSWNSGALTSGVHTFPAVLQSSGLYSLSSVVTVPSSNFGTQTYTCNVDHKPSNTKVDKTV
Excerpt: N-biotinylated human α-CGRP was captured on SA sensor chip. […] Y axis represents percentage of binding blocked by the presence of the competing peptide compared with the binding in the absence of the competing peptide.
Human α-CGRP was purchased as an N-biotinylated version to enable its high-affinity capture via SA sensor chips. […] All these peptides are amidated at the C-terminus.

[2] = system: naïve central trigeminovascular neurons; conditions: Storer et al., 2004; cited from earlier work
[3] = system: CGRP activity (skin blood flow after saphenous nerve stimulation); test: Skin vasodilatation induced by stimulation of rat saphenous nerve; format: in vivo; conditions: 400 nmol/kg i.v., 3-5 minutes before stimulation; FIG. 2A, 2B
Procedure: To test antagonist activity of anti-CGRP antibodies, effect of the antibodies on skin vasodilatation by stimulation of rat saphenous nerve was tested using a rat model described previously. Escott et al., Br. J. Pharmacol. 110:772-776, 1993. In this rat model, electrical stimulation of saphenous nerve induces release of CGRP from nerve endings, resulting in an increase in skin blood flow. Blood flow in the foot skin of male Sprague Dawley rats (170-300 g, from Charles River Hollister) was measured after saphenous nerve stimulation. Rats were maintained under anesthesia with 2% isoflurane. Bretylium tosylate (30 mg/kg, administered i.v.) was given at the beginning of the experiment to minimize vasoconstriction due to the concomitant stimulation of sympathetic fibers of the saphenous nerve. Body temperature was maintained at 37° C. by the use of a rectal probe thermostatically connected to a temperature controlled heating pad. […]
For experiments shown in FIGS. […] Skin blood flow, measured as blood cell flux, was monitored with a laser Doppler flow meter. […]
For experiments shown in FIGS. 4A and 4B, saphenous nerve was exposed surgically before antibody administration. […] Skin blood flow, measured as blood cell flux, was monitored with a laser Doppler flow meter. […]

Row | Compound | percentage of binding of G1 Fab to human α-CGRP blocked by competing peptide [1] | further results
1 | 1-13: human α-CGRP fragment, SEQ ID NO: 40, ACDTATCVTHRLA (ACDTATCVTHRLA-OH; cysteine pairing not given here) | did not compete | –
2 | 19-36: human α-CGRP fragment, SEQ ID NO: 37, SGGVVKNNFVPTNVGSKA (SGGVVKNNFVPTNVGSKA-OH) | did not compete | –
3 | NCCCC[C@H](NC(=O)[C@@H](Cc1cc(Br)c(O)c(Br)c1)NC(=O)N1CCC(N2Cc3ccccc3NC2=O)CC1)C(=O)N1CCN(c2ccncc2)CC1 [BIBN4096BS] | – | responses to electrical stimulation of the superior sagittal sinus and microiontophoretic administration of L-glutamate [2]: inhibits
4 | CGRP 8-37: positive control compound (vasodilatation antagonist) | – | blood flow increase stimulated by electronic pulses on saphenous nerve [3]: inhibited
5 | calcitonin: SEQ ID NO: 45, CGNLSTCMLGTYTQDFNKFHTFPQTAIGVGAP | did not compete | –

The next lines start with results.

Row | percentage of binding of G1 Fab to human α-CGRP blocked by competing peptide [1] | Compound | further results
6 | did not compete | 1-19: human α-CGRP fragment, SEQ ID NO: 39, ACDTATCVTHRLAGLLSRS (ACDTATCVTHRLAGLLSRS-OH; cysteine pairing not given here) | –
7 | about 40% | 1-36: human α-CGRP fragment, SEQ ID NO: 38, ACDTATCVTHRLAGLLSRSGGVVKNNFVPTNVGSKA (ACDTATCVTHRLAGLLSRSGGVVKNNFVPTNVGSKA-OH; cysteine pairing not given here) | –
8 | did not compete | adrenomedullin: SEQ ID NO: 47, YRQSMNNFQGLRSFGCRFGTCTVQKLAHQIYQFTDKDKDNVAPRSKISPQGY | –
9 | did not compete | human amylin: SEQ ID NO: 46, KCNTATCATQRLANFLVHSSNNFGAILSSTNVGSNTY | –
